Experimental data published in paper PMC7956749, “Establishment of Novel Protein Interaction Assays between Sin3 and REST Using Surface Plasmon Resonance and Time-Resolved Fluorescence Energy Transfer” (International Journal of Molecular Sciences, 2021).
“Also recorded” adds a separate entry of the source. Each block holds one molecule with its values, some of them ahead of it. Where no end group is shown, it is not given here.

Key:
biotinylated REST [1] = assay: SPR kinetics of PAH1 peptides on captured biotinylated REST (Biacore T200, SA chip); format: binding; conditions: for Ka (association rate) / Kd (dissociation rate): mean ± SEM, n = 3; for binding to biotinylated REST: SPR sensorgram, SA chip, 0.625 to 10 µM analyte
Description: In order to validate a binding surface between Sin3B and REST, we utilized the structural information of PDB (2CZY) and designed longer peptides of binding surfaces with a tag and a protease recognition site as shown in Figure 1a. We asked the RIKEN Systems and Structural Biology Center (Yokohama, Japan) to generate recombinant peptides using E. coli. Finally, we obtained biotinylated REST, GST-PAH1 and PAH1-FLAG. In order to validate whether biotinylated REST binds two PAH1 peptides, we designed an SPR assay using a streptavidin (SA) sensor chip as shown in Figure 1b. Biotinylated REST should be bound as a ligand followed by the injection of PAH1 peptides as an analyte.
We chose the amino acid sequences of PAH1 and REST from information based on the crystal structure of a PAH1/REST complex (PDB: 2CZY). We then asked the scientists with the RIKEN institute to produce recombinant PAH1 and REST peptides. They generated recombinant peptides such as GST-PAH1, PAH1-FLAG and biotinylated REST using E. coli. We used these peptides in this study.
Values are expressed as the mean ± standard error of the mean (SEM) from indicated replicate samples in each experimental group and the experiments were replicated to ensure consistency. The statistical significance was determined using the Student’s t-test. Values marked as “*” were considered to be statistically significant if their p values were <0.00005. Signal-to-background ratio (S/B), signal-to-noise ratio (S/N) and Z’-factor were calculated by the formula described in our previous report. Additionally, the general criterion sufficient to perform HTS was validated in our previous report. In the SPR experiments, a statistical trend was considered to be statistically significant if its p-value was 1 > p > 0.05.

biotinylated REST [2] = assay: TR-FRET PAH1-REST interaction (anti-GST/anti-FLAG-Eu3+ cryptate donor, SA-XL665 acceptor); format: binding; conditions: for TR-FRET signal: 665 nm normalized to 620 nm, PAH1 peptide and biotinylated REST 1 to 10,000 nM, n = 4; for dynamic range: TR-FRET 665/620 nm, 384-well, 20 µL, 50 mM Tris-HCl pH 7.6, with biotinylated REST; for S/B / S/N: n=4
Description: Finally, in order to establish a high-throughput and high-dynamic-range assay mimicking the binding surface between PAH1 and REST, we tried to apply the TR-FRET method for monitoring the interaction as shown in Figure 3a. We chose Europium cryptate (Eu^3+)-conjugated antibodies against GST or FLAG as a donor and SA-conjugated XL665 (a phycobiliprotein pigment derived from red algae) as an acceptor, for TR-FRET. If GST-PAH1 or PAH1-FLAG binds biotinylated REST and then transfers Eu^3+’s energy to XL665, it results in a change of the wavelength from 620 nm (a […] fluorescence derived from Eu^3+ alone) to 665 nm (a long-lived fluorescence converted by FRET) (Figure 3a). […] We prepared a serial dilution of GST-PAH1 or PAH1-FLAG and biotinylated REST ranging from 1 to 10,000 nM (Figure 3b) and then determined the 665 nm fluorescence normalized to 620 nm. […] We also checked whether GST-PAH1-anti-GST-Eu^3+ or FLAG-PAH1-anti-FLAG-Eu^3+ complexes caused any FRET with XL665 (Supplementary Figure S1e), and could not observe any change in wells with these alone. We assigned thresholds for high-throughput and high-standard assay as signal-to-background ratio (S/B) and Z’ factors of more than 5 and 0.8, respectively. We narrowed down optimal conditions to GST-PAH1 at 10, 100, 1000 or 10,000 nM in the presence of biotinylated REST at 1000 or 10,000 nM and that PAH1-FLAG and biotinylated REST at 10,000 nM. The S/B, signal-to-noise ratio (S/N), Z’ factor and coefficient of variation (CV) are shown in the Supplementary Table S1. We also assigned stringent statistical significance and then identified similar results by the S/B and Z’ factor (Figure 3b). To exclude the possibility that Eu^3+ antibodies directly bound XL665 causing FRET, we also determined the fluorescence level in wells including anti-GST-Eu^3+ or anti-FLAG-Eu^3+ and XL665. […] The results were 772 ± 9.1 and 436 ± 9.1 665/620 nm, respectively (n = 6). Although we observed very good dynamic range data at 1 h after preparing reaction mixtures, we obtained similar high-dynamic range data even at 18 h after that (data not shown). From 10 to 1000 nM in the concentration of biotinylated REST, 1000 or 10,000 nM GST-PAH1 induced maximal signals (Figure 3b, left, light blue and orange). The dynamic range of the assay was 31-fold, whereas only 10,000 nM PAH1-FLAG was required for the same amount of biotinylated REST to provide a maximal response and the dynamic range was 7-fold (Figure 3b, right, orange). We ultimately succeeded in establishing a high-standard assay, especially using GST-PAH1 and biotinylated REST.
TR-FRET reagents were prepared by diluting the anti-GST Eu3+ cryptate or anti-FLAG Eu3+ cryptate and SA-XL665 in 50 mM Tris-HCl (pH 7.6) buffer containing 15 mM NaCl, 140 mM KCl, 0.5 mM MgCl2, 0.1% BSA and 0.8 M KF with and without biotinylated REST and each PAH1 peptide. The reaction mix was 20 µL in 384-well format according to the manufacturer’s instructions. The fluoride ion avoids interference with fluorescence properties by protecting free coordination sites between conjugate “cage” and europium ions. One hour or more after preparation, we measured the intensities at 665 and 620 nm wavelength using PHERAstar FS (BMG biotech, Offenburg, Germany).
Values are expressed as the mean ± standard error of the mean (SEM) from indicated replicate samples in each experimental group and the experiments were replicated to ensure consistency. The statistical significance was determined using the Student’s t-test. Values marked as “*” were considered to be statistically significant if their p values were <0.00005. Signal-to-background ratio (S/B), signal-to-noise ratio (S/N) and Z’-factor were calculated by the formula described in our previous report. Additionally, the general criterion sufficient to perform HTS was validated in our previous report. […]

biotinylated REST [3] = assay: SPR competitive binding, GST-PAH1 plus PAH1-FLAG on captured biotinylated REST
Protocol: In order to determine whether another PAH1 peptide, PAH1-FLAG, competitively binds biotinylated REST in the presence of GST-PAH1, we injected 10 µM GST-PAH1, 10 µM PAH1-FLAG or 5 µM GST-PAH1 and 5 µM PAH1-FLAG into the flow cell capturing biotinylated REST, all of which could change the sensorgram, even though their rates of association/dissociation were different (Figure 2c). […] As a result, the equal molarity of both PAH1 peptides changed the sensorgram-like intermediate form (Figure 2c). The association rate was faster than GST-PAH1, while the dissociation rate was slower than PAH1-FLAG.

[4] = target: T1, PAH1-FLAG (paired amphipathic helix 1 domain of Sin3B with a FLAG tag) (UniProt Q62141 31-107); assay: SPR; well-used sensor chip (about 100 regenerations)
T1 chain: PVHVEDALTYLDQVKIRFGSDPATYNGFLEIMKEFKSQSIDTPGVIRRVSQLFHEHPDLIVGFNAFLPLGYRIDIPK

[5] = target: T2, GST-tagged PAH1 (paired amphipathic helix 1 domain of Sin3B) (UniProt Q62141 31-107); assay: SPR
T2 chain: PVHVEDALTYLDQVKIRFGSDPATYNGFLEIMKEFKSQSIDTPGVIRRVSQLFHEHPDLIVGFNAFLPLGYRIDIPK

[6] = target: T1, PAH1-FLAG (paired amphipathic helix 1 …); assay: SPR; brand-new sensor chip
[7] = SPR Biacore T200, SA chip with biotinylated REST, brand-new sensor chip, analyte 0.625 to 10 µM, 30 µL/min, association 60 s, dissociation 2 min
[8] = TR-FRET, PAH1 10 nM, REST 1000 nM
[9] = TR-FRET, PAH1 10 nM, REST 10,000 nM
[10] = TR-FRET, PAH1 100 nM, REST 1000 nM
[11] = TR-FRET, PAH1 100 nM, REST 10,000 nM
[12] = TR-FRET, PAH1 1000 nM, REST 1000 nM
[13] = TR-FRET, PAH1 1000 nM, REST 10,000 nM
[14] = TR-FRET, PAH1 10,000 nM, REST 1000 nM
[15] = TR-FRET, PAH1 10,000 nM, REST 10,000 nM
[16] = SPR, well-used sensor chip (after around 100 regenerations) with biotinylated REST

Kd (dissociation rate) (biotinylated REST [1]; [7]): 1.35 ± 0.82 × 10^−3 1/s
B1: GST-PAH1: recombinant glutathione S-transferase (GST)-tagged PAH1 peptide of Sin3B, produced in E. coli (protein)
chain: PVHVEDALTYLDQVKIRFGSDPATYNGFLEIMKEFKSQSIDTPGVIRRVSQLFHEHPDLIVGFNAFLPLGYRIDIPK
modifications: left off: GST, end not stated, kept | histidine-tag-like sequence, end not stated, state not stated
notes: recombinant glutathione S-transferase (GST)-tagged PAH1 peptide of Sin3B, produced in E. coli
Ka (association rate) (biotinylated REST [1]; [7]): 2.38e+06 ± 6.7e+11 M⁻¹ s⁻¹
association and dissociation with biotinylated REST (biotinylated REST [1]; SPR sensorgram after ligand capturing, GST-PAH1 10 µM): robust association and subsequent dissociation
binding to biotinylated REST (biotinylated REST [1]): bound biotinylated REST in a concentration-dependent manner
affinity/association compared with PAH1-FLAG (biotinylated REST [1]; SPR, statistical comparison GST-PAH1 vs PAH1-FLAG, Student's t-test): not significant but had a slower trend than PAH1-FLAG, resulting in a significantly increased affinity to REST; also recorded: significantly greater than that of PAH1-FLAG
TR-FRET signal (biotinylated REST [2]): substantial signals; also recorded: remarkably higher dynamic range and accuracy
dynamic range (biotinylated REST [2]): 31 fold
S/B (biotinylated REST [2]; [8]): 26.6
S/N (biotinylated REST [2]; [8]): 469.9
S/B (biotinylated REST [2]; [9]): 24.2
S/N (biotinylated REST [2]; [9]): 1,114.3
S/B (biotinylated REST [2]; [10]): 27.0
S/N (biotinylated REST [2]; [10]): 478.7
S/B (biotinylated REST [2]; [11]): 26.7
S/N (biotinylated REST [2]; [11]): 1230.7
S/B (biotinylated REST [2]; [12]): 29.2
S/N (biotinylated REST [2]; [12]): 517.8
S/B (biotinylated REST [2]; [13]): 31.1
S/N (biotinylated REST [2]; [13]): 1441.0
S/B (biotinylated REST [2]; [14]): 7.7
S/N (biotinylated REST [2]; [14]): 123.9
S/B (biotinylated REST [2]; [15]): 11.7
S/N (biotinylated REST [2]; [15]): 515.1

Kd (dissociation rate) (biotinylated REST [1]; [7]): 3.83 ± 0.39 × 10^−3 1/s
Kd (dissociation rate) (biotinylated REST [1]; [16]): 3.59 ± 0.13 × 10^−3 1/s
rates of association and dissociation vs GST-PAH1 (biotinylated REST [3]; 10 µM each): far more quickly than in GST-PAH1
B2: PAH1-FLAG: recombinant FLAG-tagged PAH1 peptide of Sin3B, produced in E. coli (protein)
chain: PVHVEDALTYLDQVKIRFGSDPATYNGFLEIMKEFKSQSIDTPGVIRRVSQLFHEHPDLIVGFNAFLPLGYRIDIPK
modifications: left off: FLAG, end not stated, kept | histidine-tag-like sequence, end not stated, state not stated
notes: recombinant FLAG-tagged PAH1 peptide of Sin3B, produced in E. coli
Ka (association rate) (biotinylated REST [1]; [7]): 1.93 ± 0.17 × 10^3 Ms
binding to biotinylated REST (biotinylated REST [1]): bound biotinylated REST in a concentration-dependent manner
Ka (association rate) (biotinylated REST [1]; [16]): 2.31 ± 0.78 × 10^3 Ms
affinity on well-used vs brand new chip (biotinylated REST [1]; SPR, PAH1-FLAG, well-used vs brand-new chip with REST): not significantly different, but had a trend of lower affinity when compared to the brand new one
TR-FRET signal (biotinylated REST [2]): fewer signals only at high reagent concentrations
dynamic range (biotinylated REST [2]): 7 fold
S/N (biotinylated REST [2]; [15]): 165.3
concentration inducing maximal signal (biotinylated REST [2]; TR-FRET, biotinylated REST 10 to 1000 nM): 10,000 nM
competitive binding to biotinylated REST (biotinylated REST [3]; 10 µM GST-PAH1, 10 µM PAH1-FLAG or 5 µM of each): shares the same binding surface as GST-PAH1

Kd [4]: 1690 nM
Kd [5]: 0.468 nM
Kd [6]: 2030 nM
Molecule: APQLIMLANVALTGE (also: biotin, site not given here) [biotinylated REST peptide (RE-1 silencing transcription factor, binding surface for Sin3B PAH1)]
